T1: SE1 peptide of human ANGPTL8 (amino acids 25-60) (human)
T1 construct: also called hSE1; hSE1 peptide
T1 peptide: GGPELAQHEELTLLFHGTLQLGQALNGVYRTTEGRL

T2: SE1 peptide of cynomolgus monkey ANGPTL8 (amino acids 25-60) (cynomolgus monkey)
T2 construct: also called cSE1; cSE1 peptide
T2 peptide: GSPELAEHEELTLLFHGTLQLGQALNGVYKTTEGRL

T3: NusA-hANGPTL8 fusion protein (human, UniProt Q6UXH0 22-198)
T3 construct: Expressed in E. coli BL21 and captured on a chelating Sepharose column; also called hANGPTL8 (NusA-hANGPTL8 fusion protein); not shown: bacterial NusA protein, fusion partner
T3 sequence: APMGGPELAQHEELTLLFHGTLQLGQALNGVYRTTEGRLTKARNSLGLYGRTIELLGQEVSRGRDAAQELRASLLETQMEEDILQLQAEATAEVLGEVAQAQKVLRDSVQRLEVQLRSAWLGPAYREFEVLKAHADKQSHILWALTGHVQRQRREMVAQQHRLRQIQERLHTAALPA


Experiments:
[1] = biological target: T1, SE1 peptide of human ANGPTL8 (amino …); assay: BIACORE (SPR); humanized antibody Hz1E5
[2] = biological target: T1, SE1 peptide of human ANGPTL8 (amino …); assay: BIACORE (SPR), antibody from hybridoma supernatant captured by anti-mouse Fc, peptide injected, 25 C
Experimental: (§1) The binding affinities of antibodies 1E5, 1A8, and 1E9 to human ANGPTL8 were measured using a BIACORE system (GE Healthcare LifeSciences). Briefly, anti-mouse Fc antibody (Sigma-Aldrich) was immobilized on all four flow cells of a CM5 chip using amine coupling reagents (GE Healthcare LifeSciences). Antibody from hybridoma supernatants were captured on flow cells 2, 3, and 4 using flow cell 1 as a reference. The SE1 peptide of human ANGPTL8 (hSE1; SEQ ID NO:6), a corresponding SE1 peptide of cynomolgus monkey ANGPTL8 (cSE1; SEQ ID NO:67), or human ANGPTL8 was injected at a flow rate of 50 μL/min at 25° C. Kinetic data were collected over time and fit using the simultaneous global fit equation to yield affinity constants (KD values) for each antibody.
(§2) Assay results are shown in Table 4 and the BIACORE result for 1E5 binding to hANGPTL8 (NusA-hANGPTL8 fusion protein) is shown in FIG. 4.

[3] = biological target: T2, SE1 peptide of cynomolgus monkey …; assay: as above
Experimental: as §1, §2

[4] = biological target: T3, NusA-hANGPTL8 fusion protein; assay: BIACORE (SPR), antibody from hybridoma supernatant captured by anti-mouse Fc, NusA-hANGPTL8 injected, 25 C
Experimental: as §1, §2

[5] = biological target: T1, SE1 peptide of human ANGPTL8 (amino …); assay: BIACORE (SPR); chimeric 1E5 (murine variable regions, human Fc)

Row | Kd [1] [pM] | Kd [2] [pM] | Kd [3] [pM] | Kd [4] [pM] | Kd [5] [pM] | Binder
1 | 900 |  |  |  |  | humanized anti-ANGPTL8 antibody Hz1E5 (antibody, human IgG1, kappa, V domains shown, also called Hz1E5.A1) VH: EVQLVQSGAEVKKPGSSVKVSCKASGYTFTDYTIHWVRQAPGQGLEWMGWFYPGSDNIKYNAKFKDRATLTADKSTSTAYMELSSLRSEDTAVYYCARHEAFSYYDVAWFAYWGQGTLVTVSS VL: DVVMTQTPLSLPVTPGEPASISCRSSQSLVHSNGNTYLHWYLQKPGQSPQLLIYTVSNRFSGVPDRFSGSGSGSDFTLKISRVEAEDVGVYFCSQTTHFPYTFGQGTKVEIKR
2 |  | 410 | 670 | 440 |  | anti-ANGPTL8 antibody 1E5 (antibody, V domains shown, Mouse monoclonal antibody, tested from hybridoma supernatant and captured by anti-mouse Fc; also called parental 1E5 from hybridoma) VH: QVQLQQSGAELVKPGTSVRLSCKASGYTFTDYTIHWVKLRSGQGLEWIGWFYPGSDNIKYNAKFKDKATLTADKSSSTVYMDLGRLTSEDSAVYFCARHEAFSYYDVAWFAYWGQGTLVTVSA VL: DVVMTQTPLSLPVSLGDQASISCRSSQSLVHSNGNTYLHWYLQKPGQSPKLLIYTVSNRFSGVPDRFSGSGSGSDFTLNFSRVEAEDLGVYFCSQTTHFPYTFGGGTKLEIK
3 |  |  |  |  | 350 | chimeric 1E5 antibody (antibody, V domains shown, Contains 'the murine variable regions of 1E5 and a human Fc region'; also called chimeric antibody 1E5) VH: QVQLQQSGAELVKPGTSVRLSCKASGYTFTDYTIHWVKLRSGQGLEWIGWFYPGSDNIKYNAKFKDKATLTADKSSSTVYMDLGRLTSEDSAVYFCARHEAFSYYDVAWFAYWGQGTLVTVSA VL: DVVMTQTPLSLPVSLGDQASISCRSSQSLVHSNGNTYLHWYLQKPGQSPKLLIYTVSNRFSGVPDRFSGSGSGSDFTLNFSRVEAEDLGVYFCSQTTHFPYTFGGGTKLEIK
4 |  | 920 | 1800 | 2100 |  | anti-ANGPTL8 antibody 1E9 (antibody, V domains shown, Mouse monoclonal antibody, tested from hybridoma supernatant and captured by anti-mouse Fc) VH: QVQLQQSGTELVKPGASVKLSCKASGYTFTDYTIHWVKQRSGQGLEWIGWFYPGSDNIKFNAKFRDKATLTADKSSSTVYMELSRLTSEDSAVYFCARHEAFYVYDVAWFANWGQGTLVTVST VL: DVVMTQTPLSLPVSLGDQASISCRSSQSLVHSNGNTYLHWFLQKPGQSPNLLIYTVSNRFSGVPDRFSGSGSGTDFTLKISRVEAGDLGVYFCSQSTHFPYTFGGGTKLEIK
5 |  | 800 | 1040 | 2500 |  | anti-ANGPTL8 antibody 1A8 (antibody, V domains shown, Mouse monoclonal antibody, tested from hybridoma supernatant and captured by anti-mouse Fc) VH: QVQLQQSGAELVKPGASVKLSCKASGYTFTDYTIHWVKQRSGQGLEWIGWFYPGSDNIKYNEKFKDKATLTADKSSSIVYMELSRLTSEDSAVYFCARHEAYYVYDVAWFAYWGQGTLVTVSA VL: DVVMTQTPLSLPVSLGDQASISCSSSQSLVHSNGNTFLHWFLQRPGQSPKLLIYTVSNRFSGVPDRFSGSGSGTDFTLKISRVEAEDLGVYFCSQSTHFPYTFGGGTTLEIK

— US20210095014A1 (NGM BIOPHARMACEUTICALS, published 2021)
